Assay [1] deals with T1, murine IL-5 (murine, UniProt P04401 21-133).
T1 sequence (looked up): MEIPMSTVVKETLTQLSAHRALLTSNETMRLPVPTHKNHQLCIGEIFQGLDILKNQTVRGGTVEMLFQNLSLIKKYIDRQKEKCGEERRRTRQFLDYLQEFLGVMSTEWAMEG
Nature of the assay: cell-based or functional assay.

The target of assay [2] is T2, recombinant human IL-5 (human, UniProt P05113 20-134).
T2 sequence (looked up): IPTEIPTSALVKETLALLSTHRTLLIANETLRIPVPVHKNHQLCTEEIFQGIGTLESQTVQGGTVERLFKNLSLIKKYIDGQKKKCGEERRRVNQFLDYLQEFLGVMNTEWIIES
Nature of the assay: cell-based or functional assay.

For assay [3], the target named is T2, recombinant human IL-5. In words: KinExA 3000 kinetic exclusion assay, Dual Curve analysis (Standard mode), 0.1 and 0.01 nM antibody. As to the method:
(§1) The KinExA uses the principle of the Kinetic Exclusion Assay method based on measuring the concentration of uncomplexed antibody in a mixture of antibody, antigen and antibody-antigen complex. The concentration of free antibody is measured by exposing the mixture to a solid-phase immobilized antigen for a very brief period of time. In practice, this is accomplished by flowing the solution phase antigen-antibody mixture past antigen coated particles trapped in a flow cell. Data, generated by the instrument are analyzed using custom software. Equilibrium constants are calculated using a mathematical theory based on the following assumptions:
(§2) All experimental procedures were performed according to the KinExA 3000™ Manual. All runs were done in duplicate.
(§3) The antibody molecular weight used for calculation was 150 Kda.

In assay [4] the target is T2, recombinant human IL-5. In words: KinExA 3000 kinetic exclusion assay, Dual Curve (Unknown Antigen) method. On the procedure:
as §1, §2, §3

B1: human monoclonal antibody 20.13.3 (antibody, human IgG4, kappa, V domains shown)
VH: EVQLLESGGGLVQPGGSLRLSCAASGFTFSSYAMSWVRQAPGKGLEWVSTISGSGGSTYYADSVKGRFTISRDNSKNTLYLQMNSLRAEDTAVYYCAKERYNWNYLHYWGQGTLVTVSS
VL: DIQMTQSPSSLSASVGDRVTITCQASQDIINYLNWYQQKPGKAPKLLIYSASNLETRVPSRFSGSGSGTDFTFTISSLQPEDIATYYCQQYDNHPLTFGGGTKVEIRR
B1: the entries for the “IC50, TF-1 anti-proliferation assay” value in assay [1] and in assay [2] were 380 pM and 250 pM, respectively. Moreover, the results for the Kd in assay [3] and in assay [4] were 15 pM and 19.5 pM, respectively.
